According to patent US20200308270A1 (Zymeworks, published 2020):

Target: T1, recombinant human HER3 (human, UniProt P21860 20-643)
T1 construct: Bought reagent
Test: SPR (Biacore T200), HER3 captured via anti-His, Fab analyte;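 also: single cycle kinetics with five Fab concentrations, referenced against a blank flow cell and mock-buffer injections, sensorgrams fit to a 1:1 binding model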
Description: HER3 affinity determination in Fabs was carried out as follows. The screening of Fabs (preparative SEC purified) for binding to HER3 antigen occurred in two steps: an indirect capture of HER3 onto the anti-His antibody, followed by the injection of five concentrations of Fabs, for kinetic analysis using single cycle kinetics. […] HER3 was injected at 4-8 μg/mL over the active flow cell for 60 s at a flow rate of 10 μL/min. […] HER3 was not captured on the reference (blank) flow cell. […] The captured HER3 surfaces were regenerated by 10 mM glycine pH 1.5 for 120 s at 30 μL/min to prepare the surfaces for the next injection cycle. At least two mock-buffer injections were performed for each analyte injection and used for referencing. The resulting single cycle kinetics sensorgrams were analyzed using Biacore T200 BiaEvaluation software version 3.0 and fit to the 1:1 binding model.

Binder | Kd [nM]
H3 designed Vlambda-Ckappa chimeric Fab, design 18 (E83F_D85T_T105E) (Fab, name in Kabat numbering, V domains shown) VH: QVQLQESGGGLVKPGGSLRLSCAASGFTFSSYWMSWVRQAPGKGLEWVANINRDGSASYYVDSVKGRFTISRDDAKNSLYLQMNSLRAEDTAVYYCARDRGVGYFDLWGRGTLVTVSS VL: QSALTQPASVSGSPGQSITISCTGTSSDVGGYNFVSWYQQHPGKAPKLMIYDVSDRPSGVSDRFSGSKSGNTASLIISGLQADDFATYYCSSYGSSSTHVIFGGGTKVEVLR | 90.5
H3 designed Vlambda-Ckappa chimeric Fab, design 22 (E83F_D85T_T105E_V106I_L106AK) (Fab, V domains shown) VH: QVQLQESGGGLVKPGGSLRLSCAASGFTFSSYWMSWVRQAPGKGLEWVANINRDGSASYYVDSVKGRFTISRDDAKNSLYLQMNSLRAEDTAVYYCARDRGVGYFDLWGRGTLVTVSS VL: QSALTQPASVSGSPGQSITISCTGTSSDVGGYNFVSWYQQHPGKAPKLMIYDVSDRPSGVSDRFSGSKSGNTASLIISGLQADDFATYYCSSYGSSSTHVIFGGGTKVEIKR | 80.5
H3 designed Vlambda-Ckappa chimeric Fab, design 16 (E83F_V106I) (Fab, name in Kabat numbering, V domains shown) VH: QVQLQESGGGLVKPGGSLRLSCAASGFTFSSYWMSWVRQAPGKGLEWVANINRDGSASYYVDSVKGRFTISRDDAKNSLYLQMNSLRAEDTAVYYCARDRGVGYFDLWGRGTLVTVSS VL: QSALTQPASVSGSPGQSITISCTGTSSDVGGYNFVSWYQQHPGKAPKLMIYDVSDRPSGVSDRFSGSKSGNTASLIISGLQADDFADYYCSSYGSSSTHVIFGGGTKVTILR | 88.5
H3 designed Vlambda-Ckappa chimeric Fab, design 23 (E83V) (Fab, name in Kabat numbering, V domains shown) VH: QVQLQESGGGLVKPGGSLRLSCAASGFTFSSYWMSWVRQAPGKGLEWVANINRDGSASYYVDSVKGRFTISRDDAKNSLYLQMNSLRAEDTAVYYCARDRGVGYFDLWGRGTLVTVSS VL: QSALTQPASVSGSPGQSITISCTGTSSDVGGYNFVSWYQQHPGKAPKLMIYDVSDRPSGVSDRFSGSKSGNTASLIISGLQADDVADYYCSSYGSSSTHVIFGGGTKVTVLR | 95.7
H3 designed Vlambda-Ckappa chimeric Fab, design 25 (E83V_V106I) (Fab, name in Kabat numbering, V domains shown) VH: QVQLQESGGGLVKPGGSLRLSCAASGFTFSSYWMSWVRQAPGKGLEWVANINRDGSASYYVDSVKGRFTISRDDAKNSLYLQMNSLRAEDTAVYYCARDRGVGYFDLWGRGTLVTVSS VL: QSALTQPASVSGSPGQSITISCTGTSSDVGGYNFVSWYQQHPGKAPKLMIYDVSDRPSGVSDRFSGSKSGNTASLIISGLQADDVADYYCSSYGSSSTHVIFGGGTKVTILR | 80.6
H3 designed Vlambda-Ckappa chimeric Fab, design 20 (E83F_D85T_T105E_V106I) (Fab, name in Kabat numbering, V domains shown) VH: QVQLQESGGGLVKPGGSLRLSCAASGFTFSSYWMSWVRQAPGKGLEWVANINRDGSASYYVDSVKGRFTISRDDAKNSLYLQMNSLRAEDTAVYYCARDRGVGYFDLWGRGTLVTVSS VL: QSALTQPASVSGSPGQSITISCTGTSSDVGGYNFVSWYQQHPGKAPKLMIYDVSDRPSGVSDRFSGSKSGNTASLIISGLQADDFATYYCSSYGSSSTHVIFGGGTKVEILR | 85.8
H3 designed Vlambda-Ckappa chimeric Fab, design 26 (E83V_D85T) (Fab, name in Kabat numbering, V domains shown) VH: QVQLQESGGGLVKPGGSLRLSCAASGFTFSSYWMSWVRQAPGKGLEWVANINRDGSASYYVDSVKGRFTISRDDAKNSLYLQMNSLRAEDTAVYYCARDRGVGYFDLWGRGTLVTVSS VL: QSALTQPASVSGSPGQSITISCTGTSSDVGGYNFVSWYQQHPGKAPKLMIYDVSDRPSGVSDRFSGSKSGNTASLIISGLQADDVATYYCSSYGSSSTHVIFGGGTKVTVLR | 82.1
H3 designed Vlambda-Ckappa chimeric Fab, design 14 (E83F) (Fab, name in Kabat numbering, V domains shown) VH: QVQLQESGGGLVKPGGSLRLSCAASGFTFSSYWMSWVRQAPGKGLEWVANINRDGSASYYVDSVKGRFTISRDDAKNSLYLQMNSLRAEDTAVYYCARDRGVGYFDLWGRGTLVTVSS VL: QSALTQPASVSGSPGQSITISCTGTSSDVGGYNFVSWYQQHPGKAPKLMIYDVSDRPSGVSDRFSGSKSGNTASLIISGLQADDFADYYCSSYGSSSTHVIFGGGTKVTVLR | 92.6
H3 designed Vlambda-Ckappa chimeric Fab, design 19 (E83F_D85V_T105E) (Fab, name in Kabat numbering, V domains shown) VH: QVQLQESGGGLVKPGGSLRLSCAASGFTFSSYWMSWVRQAPGKGLEWVANINRDGSASYYVDSVKGRFTISRDDAKNSLYLQMNSLRAEDTAVYYCARDRGVGYFDLWGRGTLVTVSS VL: QSALTQPASVSGSPGQSITISCTGTSSDVGGYNFVSWYQQHPGKAPKLMIYDVSDRPSGVSDRFSGSKSGNTASLIISGLQADDFAVYYCSSYGSSSTHVIFGGGTKVEVLR | 83
H3 designed Vlambda-Ckappa chimeric Fab, design 28 (E83V_D85V_T105E) (Fab, name in Kabat numbering, V domains shown) VH: QVQLQESGGGLVKPGGSLRLSCAASGFTFSSYWMSWVRQAPGKGLEWVANINRDGSASYYVDSVKGRFTISRDDAKNSLYLQMNSLRAEDTAVYYCARDRGVGYFDLWGRGTLVTVSS VL: QSALTQPASVSGSPGQSITISCTGTSSDVGGYNFVSWYQQHPGKAPKLMIYDVSDRPSGVSDRFSGSKSGNTASLIISGLQADDVAVYYCSSYGSSSTHVIFGGGTKVEVLR | 89.2
H3 designed Vlambda-Ckappa chimeric Fab, design 24 (E83V_T105E) (Fab, name in Kabat numbering, V domains shown) VH: QVQLQESGGGLVKPGGSLRLSCAASGFTFSSYWMSWVRQAPGKGLEWVANINRDGSASYYVDSVKGRFTISRDDAKNSLYLQMNSLRAEDTAVYYCARDRGVGYFDLWGRGTLVTVSS VL: QSALTQPASVSGSPGQSITISCTGTSSDVGGYNFVSWYQQHPGKAPKLMIYDVSDRPSGVSDRFSGSKSGNTASLIISGLQADDVADYYCSSYGSSSTHVIFGGGTKVEVLR | 102
H3 designed Vlambda-Ckappa chimeric Fab, design 21 (E83F_D85V_T105E_V106I) (Fab, name in Kabat numbering, V domains shown) VH: QVQLQESGGGLVKPGGSLRLSCAASGFTFSSYWMSWVRQAPGKGLEWVANINRDGSASYYVDSVKGRFTISRDDAKNSLYLQMNSLRAEDTAVYYCARDRGVGYFDLWGRGTLVTVSS VL: QSALTQPASVSGSPGQSITISCTGTSSDVGGYNFVSWYQQHPGKAPKLMIYDVSDRPSGVSDRFSGSKSGNTASLIISGLQADDFAVYYCSSYGSSSTHVIFGGGTKVEILR | 82.6
H3 designed Vlambda-Ckappa chimeric Fab, design 27 (E83V_D85T_T105E) (Fab, name in Kabat numbering, V domains shown) VH: QVQLQESGGGLVKPGGSLRLSCAASGFTFSSYWMSWVRQAPGKGLEWVANINRDGSASYYVDSVKGRFTISRDDAKNSLYLQMNSLRAEDTAVYYCARDRGVGYFDLWGRGTLVTVSS VL: QSALTQPASVSGSPGQSITISCTGTSSDVGGYNFVSWYQQHPGKAPKLMIYDVSDRPSGVSDRFSGSKSGNTASLIISGLQADDVATYYCSSYGSSSTHVIFGGGTKVEVLR | 84.1
H3 designed Vlambda-Ckappa chimeric Fab, design 15 (E83F_T105E) (Fab, name in Kabat numbering, V domains shown) VH: QVQLQESGGGLVKPGGSLRLSCAASGFTFSSYWMSWVRQAPGKGLEWVANINRDGSASYYVDSVKGRFTISRDDAKNSLYLQMNSLRAEDTAVYYCARDRGVGYFDLWGRGTLVTVSS VL: QSALTQPASVSGSPGQSITISCTGTSSDVGGYNFVSWYQQHPGKAPKLMIYDVSDRPSGVSDRFSGSKSGNTASLIISGLQADDFADYYCSSYGSSSTHVIFGGGTKVEVLR | 90.8
H3 Vlambda-Ckappa chimeric Fab (Fab, V domains shown, Parent chimeric Fab without stabilizing substitutions; also called chimera; VL-CK chimeric Fab) VH: QVQLQESGGGLVKPGGSLRLSCAASGFTFSSYWMSWVRQAPGKGLEWVANINRDGSASYYVDSVKGRFTISRDDAKNSLYLQMNSLRAEDTAVYYCARDRGVGYFDLWGRGTLVTVSS VL: QSALTQPASVSGSPGQSITISCTGTSSDVGGYNFVSWYQQHPGKAPKLMIYDVSDRPSGVSDRFSGSKSGNTASLIISGLQADDEADYYCSSYGSSSTHVIFGGGTKVTVLR | 92.7
H3 designed Vlambda-Ckappa chimeric Fab, design 17 (E83F_D85T) (Fab, name in Kabat numbering, V domains shown) VH: QVQLQESGGGLVKPGGSLRLSCAASGFTFSSYWMSWVRQAPGKGLEWVANINRDGSASYYVDSVKGRFTISRDDAKNSLYLQMNSLRAEDTAVYYCARDRGVGYFDLWGRGTLVTVSS VL: QSALTQPASVSGSPGQSITISCTGTSSDVGGYNFVSWYQQHPGKAPKLMIYDVSDRPSGVSDRFSGSKSGNTASLIISGLQADDFATYYCSSYGSSSTHVIFGGGTKVTVLR | 83.1
